Laboratory results published in the Human Domainome abundance scans (Beltran et al. 2025).
± gives the uncertainty stated by the source.

B1: Bromodomain adjacent to zinc finger domain protein 2B, residues 1927 to 1982; numbered along this chain, Q9UIF8 (parent)
chain: KSIMKVYCQICRKGDNEELLLLCDGCDKGCHTYCHRPKITTIPDGDWFCPACIAKA

Variants of: B1
Assay: abundance fitness (aPCA) (normalised: wild type 0, dead -1); higher = more abundant; growth selection in yeast, the domain comes from the species named
Settings: Homo sapiens

In order of rising abundance fitness:
1. KSIMKVYCQICRKGDNEELLLLCDGCDKGCHTYAHRPKITTIPDGDWFCPACIAKA [C34A]  -0.688 ± 0.088
2. KSIMKVYCQICRKGDNEELLLLCDGCDKGCSTYCHRPKITTIPDGDWFCPACIAKA [H31S]  -0.639 ± 0.088
3. KSIMKVYCQICRKGDNEELLLLCDGCDKGCVTYCHRPKITTIPDGDWFCPACIAKA [H31V]  -0.624 ± 0.073
4. KSIMKVYCQICRKGDNEELLLLCDGCDKGCCTYCHRPKITTIPDGDWFCPACIAKA [H31C]  -0.483 ± 0.13
5. KSIMKVYCQPCRKGDNEELLLLCDGCDKGCHTYCHRPKITTIPDGDWFCPACIAKA [I10P]  -0.479 ± 0.11
6. KSIMKVYCQICRKGMNEELLLLCDGCDKGCHTYCHRPKITTIPDGDWFCPACIAKA [D15M]  -0.406 ± 0.21
7. KSIMKVYCQICRKGDNEELLLLCDGCDKGCHTYCHRPKITTIPDGDWFCPFCIAKA [A51F]  -0.385 ± 0.22
8. KSIMKVYCQICRKGDNEELLLLCDGCDKGCHTYCHRPKITTIPDGDWFCPACIAKG [A56G]  -0.364 ± 0.21
9. KSIMKVYCQICRKGDNEELLLLCDGCDKGCHTYCHRPKITTIPDGDFFCPACIAKA [W47F]  -0.345 ± 0.17
10. KSIGKVYCQICRKGDNEELLLLCDGCDKGCHTYCHRPKITTIPDGDWFCPACIAKA [M4G]  -0.325 ± 0.071
11. KSIMKVYCQICRKGDNEELALLCDGCDKGCHTYCHRPKITTIPDGDWFCPACIAKA [L20A]  -0.227 ± 0.076
12. KSIMKVYCQICRKGDNEELLSLCDGCDKGCHTYCHRPKITTIPDGDWFCPACIAKA [L21S]  -0.2 ± 0.08
13. KSIMKVICQICRKGDNEELLLLCDGCDKGCHTYCHRPKITTIPDGDWFCPACIAKA [Y7I]  -0.197 ± 0.18
14. KSIMKVYCRICRKGDNEELLLLCDGCDKGCHTYCHRPKITTIPDGDWFCPACIAKA [Q9R]  -0.195 ± 0.063
15. KSLMKVYCQICRKGDNEELLLLCDGCDKGCHTYCHRPKITTIPDGDWFCPACIAKA [I3L]  -0.189 ± 0.075
16. KSINKVYCQICRKGDNEELLLLCDGCDKGCHTYCHRPKITTIPDGDWFCPACIAKA [M4N]  -0.169 ± 0.16
17. KSIMKVYCQICRKGDNEELLLLCDGCDKGCHTYCHRPKITTIPDGDHFCPACIAKA [W47H]  -0.169 ± 0.22
18. KSIMKVYCQICRKGDNEELLLLCDGCDKGCHTYCHKPKITTIPDGDWFCPACIAKA [R36K]  -0.168 ± 0.13
19. KSIMKVYCQICRKGDNEELLLLCDGCDKGCHTYCHRPKIATIPDGDWFCPACIAKA [T40A]  -0.164 ± 0.1
20. KSIMKVYCQICRTGDNEELLLLCDGCDKGCHTYCHRPKITTIPDGDWFCPACIAKA [K13T]  -0.164 ± 0.092
21. KSIMKVKCQICRKGDNEELLLLCDGCDKGCHTYCHRPKITTIPDGDWFCPACIAKA [Y7K]  -0.147 ± 0.12
22. KSIMKVYCQICRKGDNEELLLLCDGCDKGCHTYCHRPKWTTIPDGDWFCPACIAKA [I39W]  -0.137 ± 0.095
23. KSIMKVYCQKCRKGDNEELLLLCDGCDKGCHTYCHRPKITTIPDGDWFCPACIAKA [I10K]  -0.131 ± 0.13
24. KSIMKVYCQICRKFDNEELLLLCDGCDKGCHTYCHRPKITTIPDGDWFCPACIAKA [G14F]  -0.127 ± 0.19
25. KSIMKVYCQICRKGDNEELLLLCDGCDKGCHTYCHRPKITTIPDGDWFCPCCIAKA [A51C]  -0.124 ± 0.12
26. KSIMKVGCQICRKGDNEELLLLCDGCDKGCHTYCHRPKITTIPDGDWFCPACIAKA [Y7G]  -0.118 ± 0.067
27. KSIMKVTCQICRKGDNEELLLLCDGCDKGCHTYCHRPKITTIPDGDWFCPACIAKA [Y7T]  -0.102 ± 0.1
28. KSIMKVYCQICRKGDNEELLLLCDGCDKGCHTYCHRPKITTICDGDWFCPACIAKA [P43C]  -0.095 ± 0.14
29. KSIMKVYCCICRKGDNEELLLLCDGCDKGCHTYCHRPKITTIPDGDWFCPACIAKA [Q9C]  -0.091 ± 0.094
30. KSIMKVYCQICRKGDNEELLLLCDGCDKGCHTYCHRPKIWTIPDGDWFCPACIAKA [T40W]  -0.082 ± 0.11
31. KSIMKVYCQICRKGDNEELLLLCDGCDKGCHTYCHRPKITTIKDGDWFCPACIAKA [P43K]  -0.08 ± 0.15
32. KSIMKVYCQICRKGDNEELLILCDGCDKGCHTYCHRPKITTIPDGDWFCPACIAKA [L21I]  -0.072 ± 0.15
33. KSIMKVYCQICRKGDNEELLLMCDGCDKGCHTYCHRPKITTIPDGDWFCPACIAKA [L22M]  -0.067 ± 0.13
34. KSIMKVYCQVCRKGDNEELLLLCDGCDKGCHTYCHRPKITTIPDGDWFCPACIAKA [I10V]  -0.051 ± 0.079
35. KSIMKVYCQMCRKGDNEELLLLCDGCDKGCHTYCHRPKITTIPDGDWFCPACIAKA [I10M]  -0.047 ± 0.1
36. KSIMKVHCQICRKGDNEELLLLCDGCDKGCHTYCHRPKITTIPDGDWFCPACIAKA [Y7H]  -0.045 ± 0.14
37. KSIMKVYCQICRKGDNEELLLTCDGCDKGCHTYCHRPKITTIPDGDWFCPACIAKA [L22T]  -0.024 ± 0.12
38. KSIMKVYCQICRKGDNEELLLGCDGCDKGCHTYCHRPKITTIPDGDWFCPACIAKA [L22G]  -0.006 ± 0.072
39. KSIMKVYCQICRKMDNEELLLLCDGCDKGCHTYCHRPKITTIPDGDWFCPACIAKA [G14M]  0.002 ± 0.15
40. KSIMKVYCQICRKGDNEELLLLCDGCDKGCHTYCHRPKITTTPDGDWFCPACIAKA [I42T]  0.011 ± 0.1
41. KSIMKVYCQICRKGDNEELLLLCDGCDKGCHTYCHRPKITTIPDGDWFCPTCIAKA [A51T]  0.016 ± 0.12
42. KSIMKVYCQICRKGDNEELLLLCDGCDKGCHTYCHRPKITTIPDGDWFCPACILKA [A54L]  0.032 ± 0.089
43. KSIMKVYCQICRKVDNEELLLLCDGCDKGCHTYCHRPKITTIPDGDWFCPACIAKA [G14V]  0.035 ± 0.08
44. KSDMKVYCQICRKGDNEELLLLCDGCDKGCHTYCHRPKITTIPDGDWFCPACIAKA [I3D]  0.059 ± 0.14
45. KSIMKVYCQICRKGDNEELLLLCDGCDKGCHTYCHLPKITTIPDGDWFCPACIAKA [R36L]  0.06 ± 0.081
46. KSIMKVYCQICRKGDNEELLLLCDGCDKGCHTYCHRPKIKTIPDGDWFCPACIAKA [T40K]  0.072 ± 0.15
47. KSIMKVYCQICRKYDNEELLLLCDGCDKGCHTYCHRPKITTIPDGDWFCPACIAKA [G14Y]  0.079 ± 0.18
